Source: publication PMC8583167 (Oncoimmunology, 2021)

How the values were obtained:
[1] = target: T1, mCS1-His (Mus musculus, strain , UniProt Q8BHK6)
[2] = target: T1, mCS1-His; test: SPR

T1 sequence (Q8BHK6 23-333): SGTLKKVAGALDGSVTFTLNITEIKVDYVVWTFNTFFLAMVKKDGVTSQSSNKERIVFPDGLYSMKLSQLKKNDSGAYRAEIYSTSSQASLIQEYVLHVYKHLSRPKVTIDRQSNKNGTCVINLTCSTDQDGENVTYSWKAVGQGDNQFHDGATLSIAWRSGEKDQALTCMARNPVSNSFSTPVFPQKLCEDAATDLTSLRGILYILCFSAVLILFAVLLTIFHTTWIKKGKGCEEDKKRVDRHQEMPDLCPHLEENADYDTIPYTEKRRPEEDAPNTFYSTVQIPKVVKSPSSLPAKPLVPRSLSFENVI

| binding result [1] | Kd [2] [µM] | Binder |
| --- | --- | --- |
| binds |  | sdAb9 (VHH) VHH: QVQLQESGGGLVQPGGSLRLSCAASGSIFSILSMGWYRQAPGKQRELVASITNGGSTNYADSVKGRFTIFRDNAKNTVDLQMNSLKPEDTAVYYCNARPPRADLWGQGTQVTVSS |
| binds |  | sdAb5 (VHH) VHH: QVQLQESGGGLVQPGGSLRLSCAVSRSIFSFYAMGWYRQAPGKERELVARIISGGSTNYADSVKGRFTIARDNAKNTVYLQMNSLKPEDTAVYYCVAEQFLNDFTLRDWGQGTQVTVSS |
| binds |  | sdAb10 (VHH) VHH: QVQLQESGGGLVQPGGSLRLSCAASGSIFSIYAMGWYRQAPGKQRELVAGITSGGSTHYADSVKGRFTISRDNAKNSVYLQMNSLKPEDTAVYYCNSDLDPPSGTYYPALWSWGQGTQVTVSS |
| binds |  | sdAb2 (VHH) VHH: QVQLQESGGGLVQPGGSLKLSCAASGSIASIYAMGWYRQAPGKQRELVATISSDGSTNYADSVKGRFTISRNNTDNTVCLQMNSLKPEDTALYTCITEQFLGDHTLRDWGQGTQVTVSS |
|  | 0.025 | anti-mCS1 sdAb1, untagged (VHH) VHH: QVQLQESGGGLVQPGGSLRLSCAASGFTFSSTAMSWARQAPGKGLEWVSSIYSDGSTSYADSMKGRSTISRDNAKNTVYLQMNSLKPEDTAVYYCAIGDTGWGRVGQGTQVTVSS |
| binds |  | sdAb3 (VHH) VHH: QVQLQESGGGLVQPGGSLRLSCAASGSIFSIYAMDWYRQAPGKQRELVARITSDGSTNYADSVKGRFTISRDNAKNAVYLQMNSLKPEDTAVYYCVAEQSLGEHTLRDWGQGTQVTVSS |
| binds |  | sdAb4 (VHH) VHH: QVQLQESGGGFVQPGGSLRLSCAASGSIFSVYAMGWYRQAPGKQRELVAAITRGGSANYADSVKGRFTISRDNAKNAVYLQMNSLKPEDTAVYYCVAEQSLGEHTLRDWGQGTQVTVSS |
| binds |  | sdAb6 (VHH) VHH: QVQLQESGGGLVQPGGSLRLSCAASGSIFSILAMGWYRQAPGKQRELVASVTNGGSTNYADSVKGRFTISRDNAKNTVYLQMNSLKPEDTAVYYCNVRPYSDYDSWGHGTQVTVSS |
| binds |  | sdAb7 (VHH) VHH: QVQLQESGGGLVQPGGSLRLSCAASGSIFSILAMGWYRQAPGKQRELVASVTNGGSTNYADSVKGRFTISRDNAKNTVYLQMNSLKPEDTAVYYCNVRPYSDYDSWGQGTQVTVSS |
| binds |  | sdAb8 (VHH) VHH: QVQLQESGGGLVQPGGSLRLSCAASGSIFSILAMGWYRQAPGKQRELVASVTNGGSTNYADFVKGRFTISRDNVKNTVYLQMNSLKPEDTAVYYCNVRPYSDYDYWGQGTQVTVSS |
